{"source": "the DeepSol protein solubility set"}
{"experiment": "soluble on expression in E. coli; label from the status in PepcDB or PDB records"}
{"sequence": "MMKITDEKAEDVNLSTIKVVKRDGRLVTFDDQKIYDALIKAEQKIHDQVTPLTHQKVQSIVADVNREIAERFTNNVKIYEIQNIVEHTLLSNNEYALAEEYIHYRTQRDFERSKATD", "soluble on expression in E. coli": "not soluble"}
{"sequence": "MNLIEKTREFAATFHEGEPSSHDMSHINRVEALCMEIQKEEGGDLLILSLAALLHDVGVIKEHEEGGDHALYSSEIAIEFLSRAGVEMKTIEAVAYCIQTHRFSGGKRPETVEARILQDADRLDALGAIGIFRSILSMGALRMLKHTTGLDKGSSKKTVYIEDPVEGFNEYMRYKPFTIPERLNTVTAKRIAGERLKIMHIYLEALNLEAGNGKHKPLEHHHHHH", "soluble on expression in E. coli": "soluble"}
{"sequence": "MFEKGIWLNEPRQWSVTDQRLTVITDPETDFWQQTHYGFCRDTGHFLGVSVKGEFTAQVHVQGDFKTLYDQAGLMVRVDERNWVKTGVEVSDGALMLGSVLTWGQSDWATGVFDDSSSGLWLRVTVAKGVMRIQHSSDGLRWPLLRLAAFPLSERYAVGAMCCSPERGGLKVVFSHFEVMPALGKDLHDLTLEHHHHHH", "soluble on expression in E. coli": "not soluble"}
{"sequence": "SREEMSLGCQEAFEIFKRDHADSVTIDDNKQILKQRFSEAKALGESINEARSKIGHLKEEITQRHIQQVALGISENMAVPLMPDQQEEKLRSQLEEEKRRYKTMFTRLKALKVEIEHLQLLMDKAKVKLQKEFEVWWAEEATNLQVNSPAVNSLDHTKPFLQTSDSQHEWSQLLSNKSSGGWEVQDQGTGRFDVCDVNARKILPSPCPSPHSQKQSSTSTPLEDSIPKRPVSSIPLTGDSQTDSDIIAFIKARQSILQKQCLGSN", "soluble on expression in E. coli": "soluble"}
{"sequence": "AHHHHHHGSGGLALEGRSIVFASGKGGTGKTTTVANIGVALAQFGKEVILIDADITMANLSLILGMEDIPITLHDVLAGEAELKDAIYEGPAGVKVIPGGLSLEKVKKARPERLRELIKEISQMGDFILIDAPAGLELTSVTALLIGKELIIVTNPEISAITDSLKTKLVAEKLGTLPLGAILNRVTSEKTELSKEEIEAILEVPVIGIVPEDPEVKRASAYGVPLVIKNPTSPAAIAYKQIAAKLAGIKWTPPEPESPVKRIFKALFGGKR", "soluble on expression in E. coli": "soluble"}
{"sequence": "MINEIKKDAQERMDKSVEALKNNLSKVRTGRAHPSLLSGISVEYYGAATPLNQVANVVAEDARTLAITVFDKELTQKVEKAIMMSDLGLNPMSAGTIIRVPLPPLTEERRKDLVKIVRGEAEGGRVAVRNIRRDANNDLKALLKDKEISEDEDRKAQEEIQKLTDVAVKKIDEVLAAKEKELMEV", "soluble on expression in E. coli": "soluble"}
{"sequence": "MNKFKLGSDFDHLVNSLSDVELLNLFIQSCSQTTINGVPVPRFPPEEIQKQFVGASYEHALYEAYLFYRHIKEYAQNLGVPLNKESKVLDFGCGWGRIIRFLFKDASDQNLLGIDVDPAMITLCNETLGRGIYKTASPHPPVEFISDNSLDIIFAYSVFSHLSEATAENWVKEFSRVLRPGGIFIATTQARYFLDFCQQFQEHPELIQTGWHKTLSQAFPDIHRAISDYENGKFVHSPTGAGDVRNSSFYGETVIPRTYIENHYEKYLKLQDFFDDVNRLPQALFVLQKILEHHHHHH", "soluble on expression in E. coli": "not soluble"}
{"sequence": "MDLSAVRFDEKGLVPVVVQDARTGEVLTLAYANREALEETLRTRRSTFFSRSRQALWRKGETSGHTQEVVEVLLDCDGDAVVYRVLPQGPACHTGERTCFHRALLEGEKDLGFVVGQVYATIKERLRTLPEGSYVARMHQAGLDRILKKIGEEAGEVILAAKNQNPEELRHEAADLLFHLLLTLAELGLTPEDLAKTLWERHRPRSPYDGSHGN", "soluble on expression in E. coli": "soluble"}
{"sequence": "MAHHHHHHMRNMNDKNNVHNNYYYLKLENVNNGWRNKELKNDITNENIYQFIGKKKKNYSSSEMSKNSYSTCNTNNNIYINYNNNNNMYNNYNNNIYKNLNNRNINYKGYKFKQNYHTNAYVNISKNRNYYYPSESKKLTNEYNKYDFDNLEKRECKIINDESYKIEETTDMENDMLYIHNDSLPSHQPTINNNTQELYHINNYNNNIYFYEPCEKDNYLDSSIKDIYFDIYSNDTSENIKNETNDIINVDQKGNKYEENNINISNNTHEYKTFVNDDKQLLLDHIKRLEYQNNIFLNNMLNMYYVCIDYIKLQDDKIKEHEQVINSQKEFISNLKKQLSSNDNTNVAYNININHINKYKHVTK", "soluble on expression in E. coli": "not soluble"}
{"sequence": "LPFDGIVTKNIVSELSDILTGARIEKIYQPEPDEIIINLRTKGQNLKLLLSANASYPRIHLTDVTKENPINPPVFCMLLRKHLSGGKITKIDFHDFERVVTIHIETIDELGDLTFKKLVVEIMGKHSNIILVNNENKIIDSIKHVDSDISRVREVMPARPYTLPPGQDKINPLELDIDLLFSKAKEQGDPRISKFFLNNIKGFSPLLCEEICHRADVDPRLPVSSLSEDTIQNLKKVLKEIISKIENSEFTPCIIWNGDDRQKAVDFHSLEIKQYNTVDFYPSISRVLDLFYTIKDTSERLAQKKADLAKILNNCIDRCNKKISIHMDTLREVAEREKFKLYGELITANIYCIPKNASKVSLLNYYSENGEYVEVPLDENLLPQENAQRYFKKYAKAKAAYIHATQQLEEARGELSYLESVLHSLENSNSFEDIDDIRQELAEQGYLPSKKKRPEKKNSKNFTPYTYKSTDGFYIYVGKNNVQNDFLTLKFASSNDIWLHTKNIPGSHVIIRKDRGEIPDSTLFQAAMLAAYHSKAKNSSHVEVDYTKVKNVKKPNGAKPGMVIYDNYKTIIVTPDENVVNNLRMENR", "soluble on expression in E. coli": "soluble"}
{"sequence": "MAHHHHHHGICSSAPTLGEIWKRKLNQLDAKEFMAYRRRFVVEVDRNEAREALAKGKTNTGHAVSRGTAKLAWIDERGGVELKGTVVDLGCGRGSWSYYAASQPNVREVKAYTLGTSGHEKPRLVETFGWNLITFKSKVDVTKMEPFQADTVLCDIGESNPTAAVEASRTLTVLNVISRWLEYNQGCGFCVKVLNPYSCDVLEALMKMQARFGGGLIRVPLSRNSTHEMYFVSGIKNNIMGNVTAVSRQLLKRMEEQGGERVVPDYKFSTGTRSNL", "soluble on expression in E. coli": "soluble"}
{"sequence": "MSLIPSSGPSAKKVVSLGQQSEAQIPEVELIDVNHAVAQSLYKAQVNQSFTQFGDGYASTGTLNIGDVLDIMIWEAPPAVLFGGGLSSMGSGSAQQTKLPEQLVTARGTVSVPFVGDISVVGKTPGQVQEIIKGRLKKMANQPQVMVRLVQNNAANVSVIRAGNSVRMPLTAAGERVLDAVAAVGGSTANVQDTNVQLTRGNVVRTVALEDLVANPRQNILLRRGDVVTMITNPYTFTSMGAVGRTQEIGFSARGLSLSEAIGRMGGLQDRRSDARGVFVFRYTPLVELPAERQDKWIRQGYGSEAEIPTVYRVNMADAHSLFSMQRFPVKNKDVLYVSNAPLAEVQKFLSFVFSPVTSGANSINNLTNEGHHHHHH", "soluble on expression in E. coli": "soluble"}
{"sequence": "MTVELKNEYLTVLINEAGAELSSVKSSDGIEYMWQADKTFWGRHAPVLFPIVGRLKDDQYTVAGQAYHMGQHGFARDNDFTVVNQTATQATFELTDSRATREMYPYAFRLRLIYTLTDHELTVNYNVHNPANQELLFSVGGHPAFNVPLADPAGTLADYKITVAPRKVYAHIPLQAPLNDAANADDFDLTKPLALSRDLFKDDALILDLNHHETTLMLDTDLDDHGVAMTIEDAPYVGMWSPYPAEAPFVCLEPWWGIADNVDSDGQLSHKMGINRLAANQTFDAKYAISFFLEHHHHHH", "soluble on expression in E. coli": "not soluble"}
{"sequence": "MIELAELTKTAGGLVIDQFTQKRERPDSRTMIGSGKLEQMRWAIEVGEIDTVIFNDRLSPRQNVNLEEALGVKVIDRMQLILDIFAMRARSHEGMLQVEEAQLNYLLPRLVGQGIMLSRQGGGIGSKGPGETKLETDRRYIRTRIENIDKALKKVEKTRENIRQKRSKSGIFRIGLIGYTNAGKSSIMNALVGLDKEQYEQNELFATLDATTKAVKLVEDFTVSLTDTVGFIQNLPTELIKAFKSTLEESANVDLLIHVVDASNPHHEIHEQTVLKIMEDLKLTNIPVLNVYNKMDIAPSDFLPTLSPSLQLSIKSESGVQWLKTAILEKLHELFDAFELELPYEKAYQLPELRKSALVQSVVEGEKGYLIKGLIAPELSWKLPNNLEHHHHHH", "soluble on expression in E. coli": "not soluble"}
